Measurements reported in patent US20240287172A1 (SCIRHOM, published 2024).

Key:
hiR2-FL-T555A-T7 = biological target: T1, hiR2-FL-T555A-T7 (human, UniProt Q6PJF5 1-856); assay: FACS on MEF-DKO cells expressing the variant, 3 µg/ml antibody
T1 sequence: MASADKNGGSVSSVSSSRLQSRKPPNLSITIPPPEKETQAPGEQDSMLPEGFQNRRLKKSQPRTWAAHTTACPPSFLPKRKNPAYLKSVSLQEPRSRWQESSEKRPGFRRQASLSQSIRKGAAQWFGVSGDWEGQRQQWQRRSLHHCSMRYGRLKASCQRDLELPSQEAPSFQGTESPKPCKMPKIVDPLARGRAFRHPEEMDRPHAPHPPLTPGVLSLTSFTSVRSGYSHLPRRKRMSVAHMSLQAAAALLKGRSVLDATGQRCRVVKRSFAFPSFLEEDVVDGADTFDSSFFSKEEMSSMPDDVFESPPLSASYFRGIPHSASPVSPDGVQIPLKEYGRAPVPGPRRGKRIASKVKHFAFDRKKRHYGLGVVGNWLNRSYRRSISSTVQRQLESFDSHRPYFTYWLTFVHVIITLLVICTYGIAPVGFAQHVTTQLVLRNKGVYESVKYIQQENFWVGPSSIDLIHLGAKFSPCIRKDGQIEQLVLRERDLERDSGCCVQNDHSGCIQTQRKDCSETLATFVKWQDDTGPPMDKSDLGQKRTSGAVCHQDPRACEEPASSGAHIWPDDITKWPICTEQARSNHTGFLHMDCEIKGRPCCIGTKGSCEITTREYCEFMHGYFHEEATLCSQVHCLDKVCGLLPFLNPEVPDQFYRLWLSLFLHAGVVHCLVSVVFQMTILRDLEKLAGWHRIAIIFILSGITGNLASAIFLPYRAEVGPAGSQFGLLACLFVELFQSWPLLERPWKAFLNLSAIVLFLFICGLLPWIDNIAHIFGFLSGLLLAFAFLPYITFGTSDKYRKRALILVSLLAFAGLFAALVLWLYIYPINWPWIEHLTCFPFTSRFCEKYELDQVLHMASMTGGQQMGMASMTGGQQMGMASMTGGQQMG
Summary of the method: (§1)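 Cells were stained with purified antibody at 3 μg/ml in FACS buffer for 1 hour on ice, with buffer-only controls. Bound antibody was detected with PE-conjugated goat anti-mouse IgG F(ab′)2 at 1:100, 1 hour on ice in the dark, followed by flow cytometry.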

hiR2-FL-K573A-T7 = biological target: T2, hiR2-FL-K573A-T7 (human, UniProt Q6PJF5 1-856); assay: as above
T2 sequence: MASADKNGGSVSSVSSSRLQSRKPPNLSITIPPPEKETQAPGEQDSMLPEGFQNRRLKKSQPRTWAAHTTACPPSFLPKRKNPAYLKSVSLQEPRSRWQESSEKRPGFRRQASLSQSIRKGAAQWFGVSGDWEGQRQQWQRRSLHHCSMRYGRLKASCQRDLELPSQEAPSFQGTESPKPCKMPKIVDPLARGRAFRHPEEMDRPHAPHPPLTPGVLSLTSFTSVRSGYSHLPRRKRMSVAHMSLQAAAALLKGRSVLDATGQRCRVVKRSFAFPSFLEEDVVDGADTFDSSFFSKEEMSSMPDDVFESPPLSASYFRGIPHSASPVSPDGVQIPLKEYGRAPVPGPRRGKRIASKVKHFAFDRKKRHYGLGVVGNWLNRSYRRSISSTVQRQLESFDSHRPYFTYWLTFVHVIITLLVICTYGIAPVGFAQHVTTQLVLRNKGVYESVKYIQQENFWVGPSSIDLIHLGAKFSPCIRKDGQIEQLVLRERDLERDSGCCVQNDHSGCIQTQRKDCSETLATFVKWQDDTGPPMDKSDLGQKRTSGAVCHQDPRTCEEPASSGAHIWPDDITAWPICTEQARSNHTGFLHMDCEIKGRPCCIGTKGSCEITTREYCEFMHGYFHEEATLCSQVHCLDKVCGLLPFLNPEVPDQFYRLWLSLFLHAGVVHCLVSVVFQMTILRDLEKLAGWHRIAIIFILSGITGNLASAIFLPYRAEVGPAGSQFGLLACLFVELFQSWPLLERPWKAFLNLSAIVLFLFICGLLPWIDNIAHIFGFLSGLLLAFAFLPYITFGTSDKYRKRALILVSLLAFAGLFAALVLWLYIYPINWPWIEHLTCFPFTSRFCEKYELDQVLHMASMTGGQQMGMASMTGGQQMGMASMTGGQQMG
Summary of the method: as §1

B1: antibody 3 (antibody, V domains shown)
VH: QVTLKESGPGILQPSQTLSLTCSFSGFSLTTFAMGIGWVRQPSGKGLEWLAHIWWDGEKYNNPVLKSRLTISKDTSKNQVFLRIANVDTPDTATYYCARISSIYYIIDNWGQGTSVTVSS
VL: DIVLTQSPATLSVTPGHSVSLSCRASQSISNNLHWYQKKSHESPRLLIKYVSQSISGIPSRFSGSGSGTDFTLSINSVETEDFGMYFCQQSYNWPLTFGAGTKLELK
notes: mouse IgG, kappa light chain; also called clone #3; purified antibody 3
- loss of binding vs wild type (hiR2-FL-T555A-T7): ≥ 30%
- loss of binding vs wild type (hiR2-FL-K573A-T7): ≥ 30%
